The target of assay [1] is CD55 (UniProt P08174). The assay is described as follows: indirect immunofluorescence flow cytometry on H69 lung tumour cells, mAb 5 µg/ml.
In assay [2] the target is CD55 (UniProt P08174). The assay is described as follows: indirect immunofluorescence flow cytometry on AGS gastric tumour cells, mAb 5 µg/ml.
In assay [3] the target is CD55 (UniProt P08174). The assay is described as follows: indirect immunofluorescence flow cytometry on MCF7 breast tumour cells, mAb 5 µg/ml.
In assay [4] the target is CD55 (UniProt P08174). Description: indirect immunofluorescence flow cytometry on ST16 gastric tumour cells, mAb 5 µg/ml.
Assay [5] has as its target CD55 (UniProt P08174). Description: indirect immunofluorescence flow cytometry on MKN45 gastric tumour cells, mAb 5 µg/ml.
The target of assay [6] is CD55 (UniProt P08174). Description: indirect immunofluorescence flow cytometry on OAW42 ovarian tumour cells, mAb 5 µg/ml.
Assay [7] addresses CD55 (UniProt P08174). Description: indirect immunofluorescence flow cytometry on OVCAR3 ovarian tumour cells, mAb 5 µg/ml.
The target of assay [8] is CD55 (UniProt P08174). The assay is described as follows: indirect immunofluorescence flow cytometry on OVCAR4 ovarian tumour cells, mAb 5 µg/ml.
The target of assay [9] is CD55 (UniProt P08174). The assay is described as follows: indirect immunofluorescence flow cytometry on C170 colorectal tumour cells, mAb 5 µg/ml.
Assay [10] concerns the target CD55 (UniProt P08174). The assay is described as follows: indirect immunofluorescence flow cytometry on HT29 colorectal tumour cells, mAb 5 µg/ml.
In assay [11] the target is CD55 (UniProt P08174). The assay is described as follows: indirect immunofluorescence flow cytometry on OVCA433 ovarian tumour cells, mAb 5 µg/ml.
Assay [12] has as its target CD55 (UniProt P08174). The assay is described as follows: indirect immunofluorescence flow cytometry on ASPC1 pancreatic tumour cells, mAb 5 µg/ml.
Assay [13] concerns the target CD55 (UniProt P08174). The assay is described as follows: indirect immunofluorescence flow cytometry on Panc1 pancreatic tumour cells, mAb 5 µg/ml.
Assay [14] deals with CD55 (UniProt P08174). Description: indirect immunofluorescence flow cytometry on MB-MDA-231 breast tumour cells, mAb 5 µg/ml.
Assay [15] addresses CD55 (UniProt P08174). The assay is described as follows: indirect immunofluorescence flow cytometry on Colo201 colorectal tumour cells, mAb 5 µg/ml.
Assay [16] addresses CD55 (UniProt P08174). The assay is described as follows: indirect immunofluorescence flow cytometry on Colo205 colorectal tumour cells, mAb 5 µg/ml.
Assay [17] deals with human class I histocompatibility antigens (HLA-A,B,C) (human). Description: indirect immunofluorescence flow cytometry on Colo205 cells; mouse IgG at 5 µg/ml [d].
Assay [18] has the same target. The assay is described as follows: indirect immunofluorescence flow cytometry on H69 lung tumour cells, mAb 1 µg/ml.
Assay [19] shares this target. The assay is described as follows: indirect immunofluorescence flow cytometry on AGS gastric tumour cells, mAb 1 µg/ml.
The target is the same in assay [20]. Description: indirect immunofluorescence flow cytometry on MCF7 breast tumour cells, mAb 1 µg/ml.
For assay [21] the target is unchanged. Description: indirect immunofluorescence flow cytometry on ST16 gastric tumour cells, mAb 1 µg/ml.
For assay [22] the target is unchanged. The assay is described as follows: indirect immunofluorescence flow cytometry on DU4475 breast tumour cells, mAb 1 µg/ml.
Assay [23] shares this target. The assay is described as follows: indirect immunofluorescence flow cytometry on MKN45 gastric tumour cells, mAb 1 µg/ml.
The target is the same in assay [24]. The assay is described as follows: indirect immunofluorescence flow cytometry on OAW42 ovarian tumour cells, mAb 1 µg/ml.
The target is the same in assay [25]. Description: indirect immunofluorescence flow cytometry on OVCAR3 ovarian tumour cells, mAb 1 µg/ml.
Assay [26] shares this target. The assay is described as follows: indirect immunofluorescence flow cytometry on OVCAR4 ovarian tumour cells, mAb 1 µg/ml.
Assay [27] has the same target. Description: indirect immunofluorescence flow cytometry on C170 colorectal tumour cells, mAb 1 µg/ml.
Assay [28] has the same target. Description: indirect immunofluorescence flow cytometry on HT29 colorectal tumour cells, mAb 1 µg/ml.
Assay [29] shares this target. Description: indirect immunofluorescence flow cytometry on OVCA433 ovarian tumour cells, mAb 1 µg/ml.
Assay [30] has the same target. The assay is described as follows: indirect immunofluorescence flow cytometry on ASPC1 pancreatic tumour cells, mAb 1 µg/ml.
Assay [31] has the same target. Description: indirect immunofluorescence flow cytometry on Panc1 pancreatic tumour cells, mAb 1 µg/ml.
The target is the same in assay [32]. Description: indirect immunofluorescence flow cytometry on MB-MDA-231 breast tumour cells, mAb 1 µg/ml.
Assay [33] has the same target. The assay is described as follows: indirect immunofluorescence flow cytometry on Colo201 colorectal tumour cells, mAb 1 µg/ml.
For assay [34] the target is unchanged. Description: indirect immunofluorescence flow cytometry on Colo205 colorectal tumour cells, mAb 1 µg/ml.
Assay [35] has the same target. The assay is described as follows: indirect immunofluorescence flow cytometry on Colo205 cells; W6/32 at 5 µg/ml [c].
The next assay deals with Polyvalent Le^a-HSA. Description: SPR (Biacore X), polyvalent Le^a-HSA coupled to CM5 chip, mAb in flow.

Chain of UniProt P08174 (P08174 35-353 limits assumed): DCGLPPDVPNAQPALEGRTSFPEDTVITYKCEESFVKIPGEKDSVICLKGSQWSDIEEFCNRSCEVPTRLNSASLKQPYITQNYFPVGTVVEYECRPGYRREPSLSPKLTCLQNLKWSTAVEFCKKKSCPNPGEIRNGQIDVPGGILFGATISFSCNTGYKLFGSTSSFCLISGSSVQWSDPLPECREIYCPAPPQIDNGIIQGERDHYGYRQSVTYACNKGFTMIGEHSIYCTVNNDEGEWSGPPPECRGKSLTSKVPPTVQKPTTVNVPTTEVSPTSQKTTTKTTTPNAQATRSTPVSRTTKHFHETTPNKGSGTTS

Turning to 791T/36 (antibody), the Gm value was 28.1 Gm with CD55 [1]; 1880 Gm with CD55 [2]; 461 Gm with CD55 [3]; 903 Gm in the assay with CD55 [4]; 231 Gm with CD55 [5]; 401 Gm in the assay with CD55 [6]. Moreover, the Gm value in the assay with CD55 [7] is 412 Gm; in the assay with CD55 [8], 328 Gm; with CD55 [9] it was 858 Gm; with CD55 [10], 916 Gm; in the assay with CD55 [11] it was 686 Gm; with CD55 [12], 7010 Gm. For the same molecule, the Gm value with CD55 [13] stood at 472 Gm; in the assay with CD55 [14] it was 1160 Gm; with CD55 [15], 22.3 Gm; with CD55 [16] it was 44.4 Gm.
In [17], IgG Isotype control (antibody) gave a Gm of 25.4.
On to W6/32 (antibody), for which the Gm value in [18] was 109 Gm; in assay [19] it was 1560 Gm; in [20], 515 Gm; in assay [21] it was 33.5 Gm; in assay [22] it was 1360 Gm; in assay [23], 15.4 Gm. For the same molecule, the Gm value in [24] is 318 Gm; in [25], 633 Gm; in [26], 16.4 Gm; in assay [27], 16.5 Gm; in [28], 1160 Gm; in assay [29] it was 6790 Gm. For the same molecule, the Gm value in assay [30] worked out at 1780 Gm; in assay [31], 20.1 Gm; in [32], 758 Gm; in assay [33], 603 Gm; in [34], 1300 Gm. Besides, the Gm in assay [35] is 2600.

B1: FG88.2 mAb (antibody, V domains shown)
VH: EVKLEESGGGLVQPGGSMKLSCAASGFTFSDAWMNWVRQSPEKGLEWVAEIRSKVINPAIYYAESVKERFTILRDDSKSSVYLQMNSLRAEDTGIYYCSRSTMITTRDPSRYFDVWGAGTTVTVSS
VL: DIQMTQSPTSLSASVGETVTITCRTSENIHNFLTWYQQKQGKSPQVLVYNAKTLPDGVPSRFSGSGSGTQYSLKINSLQPEDFGTYYCQHFWSSPWTFGGGTKLEIKR
B1: in the assay with Polyvalent Le^a-HSA, the Kd was determined as 0.63 nM, the koff stood at 0.000118 s⁻¹ and the kon is 190000 M⁻¹ s⁻¹.

B2: FG88.7 mAb (antibody, V domains shown)
VH: EVKLEESGGGLVQPGGSMKLSCVASGFTFSDAWMNWVRQSPEKGLEWVAEIRSKAINPAIYYAESVKGRFTILRDDSKSSVYLQMNSLRAEDTGIYYCSRSTMITTRDPSRYFDVWGAGTTVTVSS
VL: DIQMTQSPTSLSASVGETVTITCRTSENIHNFLTWYQQKQGKSPQVLVYNAKTLPDGVPSRFSGSGSETQYSLKINSLQPEDFGTYYCQHFWSSPWTFGGGTKLEIKR
With B2, in the assay with Polyvalent Le^a-HSA, the Kd amounted to 0.34 nM, the koff was 5.8e-05 s⁻¹ and the kon amounted to 170000 M⁻¹ s⁻¹.
